The source of these data is the supplement of paper PMC10126150.

The data set deals with ATP. Put plainly: switch fluorescence ratio, 500 uM ATP over buffer (Cy3 cluster intensity, sum of 5 cycles each) (fold (ratio)); higher = stronger signal-on switching upon ATP binding; sequences stand for … in TCGTCGGCAGCGTCAGATGTGTATAAGAGACAGTTTTTTTTTTTTTTTTTTTTTTTTT…TC. Conditions: aptamer strand: ATP DNA aptamer (quencher-CACCTGGGGGAGTATTGCGGAGGAAGG + anchor), 100 nM annealed; ATP concentration: 500 uM. The essentials:
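The quencher-labelled ATP aptamer, at 100 nM, was annealed to Cy3-labelled switching-strand clusters on a modified Illumina MiSeq flow-cell. The clusters were imaged in selection buffer, then after 15 min with 500 uM ATP at 22 °C, and this buffer/ATP cycle ran five times with NaOH stripping and re-annealing between runs. Per-cluster fluorescence ratios, summed target-cycle over summed buffer-cycle Cy3 intensity, were averaged per switch-domain sequence. Clusters outside 100-1000 RFU were excluded.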

± gives the standard deviation of the averaged measurements.
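Note: ATP exposure 15 min at 22 °C before imaging.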

With ATGTATGTAA, the switch fluorescence ratio was 1.01 ± 0.018.

On to ATGTATGTGG, for which the switch fluorescence ratio amounted to 0.987 ± 0.049.

With ATGTATTATA, the switch fluorescence ratio came out at 1.01 ± 0.013.

For ATGTCAAGGG, the switch fluorescence ratio is 0.9944 ± 0.0085.

As to ATGTCACTTG, the switch fluorescence ratio amounted to 1.02 ± 0.018.

Turning to ATGTCAGATT, the switch fluorescence ratio came to 1.01 ± 0.037.

Regarding ATGTCAGGGT, the switch fluorescence ratio was 0.9732 ± 0.0086.

In the case of ATGTCATTGG, the switch fluorescence ratio was 1.01 ± 0.024.

ATGTCCAAGG: the switch fluorescence ratio was 1.005 ± 0.0071.

ATGTCCTGTG: the switch fluorescence ratio worked out at 1.01 ± 0.028.

With ATGTCGGCTT, the switch fluorescence ratio came to 1.03 ± 0.018.

For ATGTCGGTTT, the switch fluorescence ratio came to 1.02 ± 0.026.

For ATGTCGTGGC, the switch fluorescence ratio came to 1 ± 0.048.

For ATGTGATAGG, the switch fluorescence ratio was 1.01 ± 0.058.

For the sequence ATGTGATAGT, the switch fluorescence ratio came out at 0.98 ± 0.015.

As to ATGTGCCAGT, the switch fluorescence ratio came out at 0.962 ± 0.012.

With ATGTGCCTGT, the switch fluorescence ratio amounted to 0.9799 ± 0.0065.

For the sequence ATGTGCGCAC, the switch fluorescence ratio was found to be 1.002 ± 0.0023.

ATGTGCTGGG: the switch fluorescence ratio came out at 0.981 ± 0.031.

On to ATGTGCTGGT, for which the switch fluorescence ratio worked out at 0.991 ± 0.021.

For the sequence ATGTGCTTAG, the switch fluorescence ratio came to 1.04 ± 0.084.

As to ATGTGGACTG, the switch fluorescence ratio was 1.05 ± 0.014.

With ATGTGGCGTC, the switch fluorescence ratio was 1.01 ± 0.019.

As for ATGTGGGGAG, the switch fluorescence ratio is 0.9941 ± 0.002.

Turning to ATGTGTAACA, the switch fluorescence ratio amounted to 0.97 ± 0.037.

As to ATGTGTATCG, the switch fluorescence ratio came to 0.969 ± 0.039.

Regarding ATGTGTATGG, the switch fluorescence ratio stood at 0.998 ± 0.018.

ATGTGTCGCG: the switch fluorescence ratio was determined as 0.9917 ± 0.0045.

As for ATGTGTGAGG, the switch fluorescence ratio was found to be 1.01 ± 0.014.

For ATGTGTTACA, the switch fluorescence ratio turned out to be 1.01 ± 0.03.

For the sequence ATGTTAGGCT, the switch fluorescence ratio amounted to 0.998 ± 0.025.

Turning to ATGTTATTG, the switch fluorescence ratio was 0.973 ± 0.031.

ATGTTCCTAC: the switch fluorescence ratio is 1.04 ± 0.011.

In the case of ATGTTCGTTA, the switch fluorescence ratio stood at 1.0123 ± 0.00085.

On to ATGTTCTCAA, for which the switch fluorescence ratio is 0.998 ± 0.01.

As for ATGTTCTCCG, the switch fluorescence ratio came to 1.14 ± 0.035.

ATGTTCTCGT: the switch fluorescence ratio amounted to 0.995 ± 0.021.

For ATGTTCTCTG, the switch fluorescence ratio is 1.033 ± 0.0091.

Turning to ATGTTGAAGG, the switch fluorescence ratio is 1.03 ± 0.069.

Take ATGTTGGGTA: the switch fluorescence ratio worked out at 0.982 ± 0.019.

Turning to ATGTTGGGTG, the switch fluorescence ratio came out at 1.02 ± 0.045.

Take ATGTTGGTTT: the switch fluorescence ratio stood at 0.996 ± 0.021.

For the sequence ATGTTGTATT, the switch fluorescence ratio came out at 1.01 ± 0.052.

In the case of ATGTTGTGCT, the switch fluorescence ratio came out at 0.984 ± 0.045.

For ATGTTGTTTG, the switch fluorescence ratio turned out to be 0.979 ± 0.014.

In the case of ATGTTTATGA, the switch fluorescence ratio is 0.981 ± 0.031.

Regarding ATGTTTGAAG, the switch fluorescence ratio was found to be 0.9844 ± 0.0042.

As to ATGTTTGATG, the switch fluorescence ratio came out at 0.998 ± 0.024.

On to ATGTTTGCCT, for which the switch fluorescence ratio was 1.002 ± 0.0087.

As for ATGTTTGGAG, the switch fluorescence ratio amounted to 0.982 ± 0.018.

Consider ATGTTTGGGC, for which the switch fluorescence ratio was 0.9597 ± 0.0085.

Consider ATGTTTTATC, for which the switch fluorescence ratio is 0.994 ± 0.016.

In the case of ATGTTTTCGG, the switch fluorescence ratio amounted to 0.99 ± 0.044.

As for ATTAAAAAAA, the switch fluorescence ratio was determined as 1.11 ± 0.18.

For ATTAAAAAAC, the switch fluorescence ratio worked out at 1.01 ± 0.016.

On to ATTAAAATAT, for which the switch fluorescence ratio is 1.12 ± 0.19.

With ATTAAACAG, the switch fluorescence ratio was 1.05 ± 0.07.

In the case of ATTAAACCAG, the switch fluorescence ratio was found to be 1.1 ± 0.11.

ATTAAAGGTT: the switch fluorescence ratio was 0.99 ± 0.022.

With ATTAAAGTAG, the switch fluorescence ratio is 1.006 ± 0.0067.

Regarding ATTAAATCCG, the switch fluorescence ratio worked out at 1.042 ± 0.0099.

Regarding ATTAACGAGG, the switch fluorescence ratio is 1.04 ± 0.013.

Regarding ATTAACTTCG, the switch fluorescence ratio worked out at 0.983 ± 0.013.

For ATTAAGAAGG, the switch fluorescence ratio stood at 1.002 ± 0.0095.

On to ATTAAGGGGA, for which the switch fluorescence ratio was 1.04 ± 0.049.

As to ATTAATCAGT, the switch fluorescence ratio was 1.002 ± 0.0083.
